Data: patent US20200239575A1 (UNIVERSITY OF UTAH RESEARCH FOUNDATION, published 2020)

Columns and labels:
[1] = biological target: T1, programmed death-1 receptor (PD-1), mouse, on cells (mouse, UniProt Q02242 25-288); test: flow cytometry dose-response on 1 million EL4 cells, 4 °C 30 min, Alexa Fluor 647-labelled; EC50 of the PD-1^+ fraction taken as Kd (FIG. 10d)
T1 construct: whole, on cells; also called surface PD-1; PD-1^+ cells (EL4)
T1 sequence (looked up): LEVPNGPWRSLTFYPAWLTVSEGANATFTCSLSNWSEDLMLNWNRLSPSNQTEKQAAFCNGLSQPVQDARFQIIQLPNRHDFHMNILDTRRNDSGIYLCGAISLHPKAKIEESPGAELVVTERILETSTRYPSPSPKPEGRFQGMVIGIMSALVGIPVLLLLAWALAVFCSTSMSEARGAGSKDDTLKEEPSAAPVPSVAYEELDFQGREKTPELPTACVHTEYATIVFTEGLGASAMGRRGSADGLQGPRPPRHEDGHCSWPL

[2] = biological target: T2, mouse serum albumin (mouse, UniProt P07724 25-608); test: native PAGE of a 1-to-1 mixture (FIG. 14a)
T2 construct: also called MSA; mouse albumin

[3] = biological target: T3, human serum albumin (human, UniProt P02768 25-609); test: native PAGE of a 1-to-1 mixture (FIG. 14b)
T3 construct: also called HSA

[4] = biological target: T1, programmed death-1 receptor (PD-1), …; test: flow cytometry, Alexa Fluor 647-labelled ABD-PE, 4 °C 30 min, primary T cells, primary B cells, EL4 and B16 cells
[5] = biological target: T1, programmed death-1 receptor (PD-1), …; test: flow cytometry, EL4 cells, competitor PD-L1-Fc 500 nM, 4 °C (FIG. 8g)
[6] = biological target: T1, programmed death-1 receptor (PD-1), …; test: flow cytometry, binding and uptake by EL4 against B16 cells (FIG. 4B)
[7] = biological target: T1, programmed death-1 receptor (PD-1), …; test: flow cytometry, 37 °C 30 min, primary T cells (FIG. 8e)
[8] = biological target: T1, programmed death-1 receptor (PD-1), …; test: flow cytometry, 4 °C 30 min, primary T cells (FIG. 8c)
[9] = biological target: T1, programmed death-1 receptor (PD-1), …; test: flow cytometry, 37 °C 30 min, EL4 against B16 cells (FIG. 10e)
[10] = biological target: T1, programmed death-1 receptor (PD-1), …; test: flow cytometry, EL4 cells, competitor PD-L1-Fc 500 nM, 37 °C (FIG. 8g)
[11] = biological target: T1, programmed death-1 receptor (PD-1), …; test: flow cytometry, 37 °C 30 min, primary B cells (FIG. 8f)
[12] = biological target: T1, programmed death-1 receptor (PD-1), …; test: flow cytometry, 4 °C 30 min, primary B cells (FIG. 8d)
[13] = biological target: T1, programmed death-1 receptor (PD-1), …; test: cell-based or functional assay
[14] = biological target: T1, programmed death-1 receptor (PD-1), …; test: flow cytometry, 4 °C 30 min, EL4 against B16 cells (FIG. 10c)

B1: αPD-1 (full IgG) (antibody, V domains shown)
VH: EVQLQESGPGLVKPSQSLSLTCSVTGYSITSSYRWNWIRKFPGNRLEWMGYINSAGISNYNPSLKRRISITRDTSKNQFFLQVNSVTTEDAATYYCARSDNMGTTPFTYWGQGTLVTVSS
VL: DIVMTQGTLPNPVPSGESVSITCRSSKSLLYSDGKTYLNWYLQRPGQSPQLLIYWMSTRASGVSDRFSGSGSGTDFTLKISGVEAEDVGIYYCQQGLEFPTFGGGTKLELK
notes: Rat anti-mouse PD-1 mAb, IgG2a, κ; also called intact αPD-1; αPD-1 IgG
B1 was tested. Which Kd [1] did it give?
Its Kd is 3.4 nM.

B2: αPD-1-PE (other)
chain: HHHHHHGGGGSEVQLQESGPGLVKPSQSLSLTCSVTGYSITSSYRWNWIRKFPGNCLEWMGYINSAGISNYNPSLKRRISITRDTSKNQFFLQVNSVTTEDAATYYCARSDNMGTTPFTYWGQGTLVTVSSGGGGSGGGGSGGGGSDIVMTQGTLPNPVPSGESVSITCRSSKSLLYSDGKTYLNWYLQRPGQSPQLLIYWMSTRASGVSDRFSGSGSGTDFTLKISGVEAEDVGIYYCQQGLEFPTFGCGTKLELKGGGGSGGGGSGGGGSRHRQPRGWEQLPTGAEFLGDGGDVSFSTRGTQNWTVERLLQAHRQLEERGYVFVGYHGTFLEAAQSIVFGGVRARSQDLDAIWRGFYIAGDPALAYGYAQDQEPDARGRIRNGALLRVYVPRSSLPGFYRTSLTLAAPEAAGEVERLIGHPLPLRLDAITGPEEEGGRLETILGWPLAERTVVIPSAIPTDPRNVGGDLDPSSIPDKEQAISALPDYASQPGKPPREDLK
notes: Control protein without the ABD
Does B2 bind [2]?
Result: no binding

Does B2 bind [3]?
Result: no binding

B3: ABD-PE (other)
chain: HHHHHHGGGGSLAEAKVLANRELDKYGVSDFYKRLINKAKTVEGVEALKLHILAALPGGGGSGGGGSGGGGSRHRQPRGWEQLPTGAEFLGDGGDVSFSTRGTQNWTVERLLQAHRQLEERGYVFVGYHGTFLEAAQSIVFGGVRARSQDLDAIWRGFYIAGDPALAYGYAQDQEPDARGRIRNGALLRVYVPRSSLPGFYRTSLTLAAPEAAGEVERLIGHPLPLRLDAITGPEEEGGRLETILGWPLAERTVVIPSAIPTDPRNVGGDLDPSSIPDKEQAISALPDYASQPGKPPREDLK
modifications: Alexa Fluor 647 NHS ester label in the flow cytometry assays (sites not given)
notes: Untargeted control protein without the αPD-1 scFv; also called labeled ABD-PE
Does B3 bind [4]?
Result: no binding (tested: 100 nM)

B4: αPD-1-ABD-PE (other)
chain: HHHHHHGGGGSEVQLQESGPGLVKPSQSLSLTCSVTGYSITSSYRWNWIRKFPGNCLEWMGYINSAGISNYNPSLKRRISITRDTSKNQFFLQVNSVTTEDAATYYCARSDNMGTTPFTYWGQGTLVTVSSGGGGSGGGGSGGGGSDIVMTQGTLPNPVPSGESVSITCRSSKSLLYSDGKTYLNWYLQRPGQSPQLLIYWMSTRASGVSDRFSGSGSGTDFTLKISGVEAEDVGIYYCQQGLEFPTFGCGTKLELKGGGGSGGGGSGGGGSLAEAKVLANRELDKYGVSDFYKRLINKAKTVEGVEALKLHILAALPGGGGSGGGGSGGGGSRHRQPRGWEQLPTGAEFLGDGGDVSFSTRGTQNWTVERLLQAHRQLEERGYVFVGYHGTFLEAAQSIVFGGVRARSQDLDAIWRGFYIAGDPALAYGYAQDQEPDARGRIRNGALLRVYVPRSSLPGFYRTSLTLAAPEAAGEVERLIGHPLPLRLDAITGPEEEGGRLETILGWPLAERTVVIPSAIPTDPRNVGGDLDPSSIPDKEQAISALPDYASQPGKPPREDLK
modifications: Alexa Fluor 647 NHS ester label in the flow cytometry assays (sites not given)
notes: Order NH2-HisTag-GGGGS-VH-(GGGGS)3-VL-(GGGGS)3-ABD-(GGGGS)3-PE; made in E. coli Shuffle T7; theoretical molecular weight 57.9 kDa; also called the immunotoxin; the toxin
For B4, which “fold decrease of MFI with PD-L1-Fc against αPD-1-ABD-PE alone” value [5] is on record?
Its value is ~8 fold.

What about the “fold binding and uptake, EL4 over B16 cells” value [6] of the same binder?
Its value is 11.7 fold.

What about the Kd [1] of the same binder?
The Kd was 12 nM.

And the “fold MFI (binding and uptake), PD-1^+ over PD-1^- primary T cells” value [7]?
The value was > 8 fold.

What about the “fold MFI, PD-1^+ over PD-1^- primary T cells” value [8] of the same binder?
The value was > 4 fold.

What about the “fold MFI (binding and uptake), EL4 over B16 cells” value [9] of the same binder?
The value was ~12 fold.

And the “fold decrease of MFI with PD-L1-Fc against αPD-1-ABD-PE alone” value [10]?
The value was ~25 fold.

What about the “fold MFI (binding and uptake), PD-1^+ over PD-1^- primary B cells” value [11] of the same binder?
Its value is > 7 fold.

What about the “fold MFI, PD-1^+ over PD-1^- primary B cells” value [12] of the same binder?
Its value is > 5 fold.

What about the “IC50 of cytotoxicity to EL4 cells (FIG. 2C)” value [13] of the same binder?
Its value is 1.1 nM.

What about the “IC50 of cytotoxicity to PD-1^+ primary B cells (72 h, live cell count by flow cytometry)” value [13] of the same binder?
Its value is 0.47 nM.

What about the “IC50 of cytotoxicity to PD-1^+ primary T cells (72 h, live cell count by flow cytometry)” value [13] of the same binder?
The value was 0.43 nM.

And the “IC50 of cytotoxicity to wildtype EL4 cells (MTS assay, 72 h)” value [13]?
Its value is 0.64 nM.

What about the “fold toxicity, wildtype EL4 cells against PD-1 knockout EL4 cells” value [13] of the same binder?
The value was > 1000 fold.

What about the “fold MFI, EL4 over B16 cells” value [14] of the same binder?
Its value is > 3 fold.
